# Results published in patent publication US20170269080A1 (VIRGINIA COMMONWEALTH UNIVERSITY, published 2017).
# T1: PSGL-1 (sLe^x-capped, sialylated) on PSGL-1 CHO cells (UniProt Q14242 42-412, sLe^x-capped (alpha2,3-sialylated, alpha1,3-fucosylated glycan))
# T1 construct: whole, on cells; also called sLe^x-modified PSGL-1; sialylated PSGL-1
# T1 sequence: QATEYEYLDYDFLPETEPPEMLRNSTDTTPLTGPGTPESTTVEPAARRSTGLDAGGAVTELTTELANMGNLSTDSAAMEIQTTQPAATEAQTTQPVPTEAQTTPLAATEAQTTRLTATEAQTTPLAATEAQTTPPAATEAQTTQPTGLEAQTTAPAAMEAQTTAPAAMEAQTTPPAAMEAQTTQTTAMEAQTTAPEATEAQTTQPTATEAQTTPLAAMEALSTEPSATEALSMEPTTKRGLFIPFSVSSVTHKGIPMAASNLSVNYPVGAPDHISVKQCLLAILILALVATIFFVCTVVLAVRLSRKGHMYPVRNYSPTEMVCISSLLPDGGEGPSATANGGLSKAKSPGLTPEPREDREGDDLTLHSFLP
# B1: GST-OmpA (N-terminal glutathione-S-transferase-tagged A. phagocytophilum OmpA without signal sequence) (other)
# chain: CGTLLPDSNVGVGRHDLGSHRSVAFAKKVEKVYFDIGKYDLKGPGKKVILELVEQLRQDDSMYLVVIGHADATGTEEYSLALGEKRANAVKQFIIGCDKSLAPRVTTQSRGKAEPEVLVYSTDAQEVEKANAQNRRAVIVVEFAHIPRSGVADMHAPVASSITSENSNASAEGEDMEASEFSSAIAN
# notes: also called GST-tagged Aph OmpA; GST-ApOmpA; not shown: glutathione-S-transferase (GST) tag, N-terminal, from vector pDest-15
# B2: GST-Asp14 (N-terminal glutathione-S-transferase-tagged A. phagocytophilum Asp14) (other)
# chain: MIPLAPWKSISVVYMSGSDEYKEIIKQCIGSVKEVFGEGRFDDVVASIMKMQEKVLASSMQQDDTGTVGQIESGEGSGARLSDEQVQQLMNSIREEFKDDLRAIKRRILKLERAVYGANTPKES
# notes: Coding region of asp14 (13.8 kDa) fused to GST; also called recombinant Asp14; not shown: glutathione-S-transferase (GST) tag, N-terminal, from vector pDest-15
# Experiments:
# [1] = molecular target: T1, PSGL-1 (sLe^x-capped, sialylated) on …; assay: PSGL-1 CHO cells preincubated with GST-OmpA, Aph adherence counted (competition with the bacteria)
# [2] = molecular target: the molecule itself; assay: non-reducing SDS-PAGE and Western blot with anti-Asp14
Binder,reduction of Aph binding to sLe^x-modified PSGL-1 relative to GST alone [1] [%],binding result [2]
B1,~60,–
B2,–,binds
